# Test results reported in patent US20220348609A1 (University of Washington, published 2022).
# Target: T1, human αvβ6 integrin, soluble protein (biotinylated for yeast display; in solution for BLI) (human, UniProt P06756 31-992; P18564 22-707, limits assumed, biotinylated in the yeast display experiments (site not stated))
# T1 construct: also called avb6; alpha(v) beta (6) integrin
# Assay: yeast surface display, flow cytometry, 50 pM biotinylated αvβ6 stained with SAPE
# Source text: Yeast Display: Standard yeast surface display techniques were used to screen designs for binding and directed evolution. Genes encoding the designs were cloned into petcon2 in frame with N-term aga2 and C-term myc tag. Surface expression of Myc was detected using Anti-C Myc antibody and binding was detected by using biotinylated human αᵥβ₆ and stained with phycoerythrin conjugated streptavidin for FACS. Two different buffers were used for the binding and washing steps for yeast display: Binding Buffer 20 mM TRIS, 150 mM NaCl, pH=8.0, 1% BSA, 1 mM Ca(II) and 1 mM Mg(II), Wash Buffer: 20 mM TRIS, 150 mM NaCl, pH=8.0, 0.5% BSA, 1 mM Ca(II) and 1 mM Mg(II).
# T1 sequence (P06756 31-992 limits assumed, chain 1 of 2): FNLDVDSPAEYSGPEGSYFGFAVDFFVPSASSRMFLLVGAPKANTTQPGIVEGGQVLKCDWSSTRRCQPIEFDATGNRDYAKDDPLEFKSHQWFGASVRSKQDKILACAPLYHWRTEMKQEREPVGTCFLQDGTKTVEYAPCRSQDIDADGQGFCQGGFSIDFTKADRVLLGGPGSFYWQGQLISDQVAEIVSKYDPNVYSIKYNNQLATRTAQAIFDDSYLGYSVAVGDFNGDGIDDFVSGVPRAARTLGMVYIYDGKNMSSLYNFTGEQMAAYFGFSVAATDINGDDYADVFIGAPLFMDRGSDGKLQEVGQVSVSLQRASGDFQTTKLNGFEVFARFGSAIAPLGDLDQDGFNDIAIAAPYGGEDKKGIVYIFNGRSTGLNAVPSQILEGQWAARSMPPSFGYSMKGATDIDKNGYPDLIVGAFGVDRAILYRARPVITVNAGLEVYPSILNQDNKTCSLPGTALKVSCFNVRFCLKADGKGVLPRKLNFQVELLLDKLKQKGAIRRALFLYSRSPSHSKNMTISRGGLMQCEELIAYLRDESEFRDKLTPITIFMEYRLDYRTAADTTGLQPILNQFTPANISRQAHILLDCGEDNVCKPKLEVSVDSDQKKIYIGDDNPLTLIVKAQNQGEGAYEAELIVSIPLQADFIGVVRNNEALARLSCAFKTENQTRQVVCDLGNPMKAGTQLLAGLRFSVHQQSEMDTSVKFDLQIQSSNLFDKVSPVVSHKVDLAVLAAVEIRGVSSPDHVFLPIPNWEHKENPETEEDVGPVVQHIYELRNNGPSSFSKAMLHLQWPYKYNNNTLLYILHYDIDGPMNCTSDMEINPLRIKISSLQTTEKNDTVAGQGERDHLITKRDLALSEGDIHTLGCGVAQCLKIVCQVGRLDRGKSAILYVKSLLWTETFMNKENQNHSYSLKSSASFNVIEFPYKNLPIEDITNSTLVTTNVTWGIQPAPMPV
# T1 sequence (P18564 22-707 limits assumed, chain 2 of 2): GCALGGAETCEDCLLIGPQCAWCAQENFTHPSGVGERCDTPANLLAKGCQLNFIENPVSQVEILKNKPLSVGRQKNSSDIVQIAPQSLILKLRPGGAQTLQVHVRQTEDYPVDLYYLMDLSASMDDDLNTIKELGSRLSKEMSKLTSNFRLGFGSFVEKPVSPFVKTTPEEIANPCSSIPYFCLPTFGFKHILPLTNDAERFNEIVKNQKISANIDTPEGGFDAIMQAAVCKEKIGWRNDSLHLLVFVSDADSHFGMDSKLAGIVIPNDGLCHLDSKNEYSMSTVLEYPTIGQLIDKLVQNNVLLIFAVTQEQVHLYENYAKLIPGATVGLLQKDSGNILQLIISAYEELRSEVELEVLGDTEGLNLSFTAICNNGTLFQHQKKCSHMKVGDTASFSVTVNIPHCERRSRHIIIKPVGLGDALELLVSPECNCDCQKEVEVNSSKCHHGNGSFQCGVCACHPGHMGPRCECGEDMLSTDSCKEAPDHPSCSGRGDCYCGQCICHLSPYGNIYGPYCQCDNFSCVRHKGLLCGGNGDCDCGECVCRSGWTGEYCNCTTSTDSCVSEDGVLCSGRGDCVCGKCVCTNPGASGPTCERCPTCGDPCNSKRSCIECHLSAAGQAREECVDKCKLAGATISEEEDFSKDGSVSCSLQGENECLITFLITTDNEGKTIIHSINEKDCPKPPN
row,Binder,binding result
1,av6_4 (designed binder) single chain: MAVVRFVFRGDLAELMLRAVKDHLKKEGPHWNITSTNNGAELVVRGIHESDAKRIAKWARLKFPGTDTRIEVR,binds
2,av6_1 (designed binder) single chain: MAVVRFVFRGDLAELMLRAVKDHLKKEGPHWNITSTNNGAELVVRGIHESDAKRIARTVEKLTNGKSQSLVLT,binds
3,av6_12 (designed binder) single chain: MAVVRFVFRGDLAELMLRAVKDHLKKEGPHWNITSDTSKGAELVVRGIHESDAKRIAKWARLKFPGTDTRIEV,binds

# Continued, values first:
row,binding result,Binder
1,binds,av6_8 (designed binder) single chain: MAVVRFVFRGDLAELMLRAVKDHLKKEGPHWNITSDESGFELVVRGIHESDAKRIAKWARLKFPGTDTRIEVR
2,binds,av6_13 (designed binder) single chain: MAVVRFVFRGDLAELMLRAVKDHLKKEGPHWNITSVESSQVELVVRGIHESDAKRIARTVEKLTNGKSQSLVL
3,binds,av6_5 (designed binder) single chain: MAVVRFVFRGDLAELMLRAVKDHLKKEGPHWNITSDESGFELVVRGIHESDAKRIARTVEKLTNGKSQSLVLT
4,binds,av6_16 (designed binder) single chain: MAVVRFVFRGDLAELMLRAVKDHLKKEGPHWNITSVESSQVELVVRGIHESDAKRIAKWARLKFPGTDTRIEV

# Target: T2, human αvβ6 integrin on cells (A431 carcinoma cells; K562 cells stably transfected with αvβ6) (human, UniProt P06756 31-1048; P18564 22-788)
# T2 construct: whole, on cells; Endogenous on A431 cells, transfected on K562 cells; also called αvβ6(+) cells; K562 avb6 transfected clone A4
# T2 sequence (P06756 31-1048, chain 1 of 2): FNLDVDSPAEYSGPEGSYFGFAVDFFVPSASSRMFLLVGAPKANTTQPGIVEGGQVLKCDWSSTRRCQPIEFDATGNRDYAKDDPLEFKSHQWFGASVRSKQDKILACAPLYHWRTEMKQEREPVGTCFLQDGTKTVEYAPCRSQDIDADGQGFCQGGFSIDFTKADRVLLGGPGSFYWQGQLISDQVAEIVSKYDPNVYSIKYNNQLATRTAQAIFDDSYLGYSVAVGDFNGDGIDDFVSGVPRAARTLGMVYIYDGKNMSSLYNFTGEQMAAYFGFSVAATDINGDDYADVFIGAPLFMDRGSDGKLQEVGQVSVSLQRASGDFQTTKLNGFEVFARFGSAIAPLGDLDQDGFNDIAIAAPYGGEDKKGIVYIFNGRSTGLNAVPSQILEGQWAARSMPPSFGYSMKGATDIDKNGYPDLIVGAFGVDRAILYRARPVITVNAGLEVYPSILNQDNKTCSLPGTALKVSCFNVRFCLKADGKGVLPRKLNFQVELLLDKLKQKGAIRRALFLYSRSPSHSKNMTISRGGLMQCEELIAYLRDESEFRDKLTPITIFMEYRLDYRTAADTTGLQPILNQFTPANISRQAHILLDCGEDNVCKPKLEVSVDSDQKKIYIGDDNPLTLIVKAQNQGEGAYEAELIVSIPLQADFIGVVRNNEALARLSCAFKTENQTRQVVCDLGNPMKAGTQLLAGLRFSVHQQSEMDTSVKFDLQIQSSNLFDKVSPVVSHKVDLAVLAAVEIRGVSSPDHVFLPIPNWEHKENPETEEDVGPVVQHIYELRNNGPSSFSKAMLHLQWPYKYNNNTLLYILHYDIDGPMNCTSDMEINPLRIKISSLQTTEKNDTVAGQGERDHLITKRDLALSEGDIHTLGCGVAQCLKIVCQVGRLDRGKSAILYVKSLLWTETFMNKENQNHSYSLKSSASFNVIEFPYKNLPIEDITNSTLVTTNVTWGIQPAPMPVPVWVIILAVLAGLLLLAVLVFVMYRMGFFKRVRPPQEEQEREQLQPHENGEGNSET
# T2 sequence (P18564 22-788, chain 2 of 2): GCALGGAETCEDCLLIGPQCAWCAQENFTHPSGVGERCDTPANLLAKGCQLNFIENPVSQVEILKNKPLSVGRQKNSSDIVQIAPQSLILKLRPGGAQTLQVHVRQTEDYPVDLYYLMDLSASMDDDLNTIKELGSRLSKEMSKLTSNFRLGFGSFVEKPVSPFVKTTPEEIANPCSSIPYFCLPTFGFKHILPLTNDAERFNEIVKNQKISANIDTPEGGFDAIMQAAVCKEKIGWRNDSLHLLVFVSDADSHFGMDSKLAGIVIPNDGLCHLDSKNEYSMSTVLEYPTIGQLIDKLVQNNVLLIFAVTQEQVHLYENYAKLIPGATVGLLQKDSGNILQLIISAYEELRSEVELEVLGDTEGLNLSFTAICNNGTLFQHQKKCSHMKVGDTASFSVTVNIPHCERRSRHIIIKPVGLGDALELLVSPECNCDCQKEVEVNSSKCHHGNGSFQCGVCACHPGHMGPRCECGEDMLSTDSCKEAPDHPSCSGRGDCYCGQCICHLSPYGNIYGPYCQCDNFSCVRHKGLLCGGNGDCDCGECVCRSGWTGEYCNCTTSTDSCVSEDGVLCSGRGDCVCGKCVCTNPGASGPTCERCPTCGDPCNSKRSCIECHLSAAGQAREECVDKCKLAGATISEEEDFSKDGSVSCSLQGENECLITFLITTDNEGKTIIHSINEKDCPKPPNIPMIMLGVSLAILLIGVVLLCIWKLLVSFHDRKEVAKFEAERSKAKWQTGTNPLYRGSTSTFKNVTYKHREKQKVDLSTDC
# Assay: row 'X(selectivity)' of the drawn table: αvβ6 over αvβ8, cell surface competition assay
row,Binder,X(selectivity) [X]
1,"av6_3 (designed binder, the purified protein (BLI, cell assays) carries a C-terminal His tag; also called αv6_3; original unevolved av6_3; not shown: C-terminal His tag of the purified protein (pET29b, NdeI/XhoI)) MAVVRFVFRGDLAELMLRAVKDHLKKEGPHWNITSTNNGAELVVRGIHESDAKRIAKWVEKRFPGVHTETQQD",14
2,"av6_9 (designed binder, Yeast display: Aga2 fusion with C-terminal myc tag; also purified from E. coli with C-terminal His tag) MAVVRFVFRGDLAELMLRAVKDHLKKEGPHWNITSDTSKGAELVVRGIHESDAKRIARTVEKLTNGKSQSLVL",3
3,"av6_11 (designed binder, Yeast display: Aga2 fusion with C-terminal myc tag; also purified from E. coli with C-terminal His tag) MAVVRFVFRGDLAELMLRAVKDHLKKEGPHWNITSDTSKGAELVVRGIHESDAKRIAKWVEKRFPGVHTETQQ",8

# More lines, now with the values ahead:
row,X(selectivity) [X],Binder
1,1.5,"av6_7 (designed binder, Yeast display: Aga2 fusion with C-terminal myc tag; also purified from E. coli with C-terminal His tag) MAVVRFVFRGDLAELMLRAVKDHLKKEGPHWNITSDESGFELVVRGIHESDAKRIAKWVEKRFPGVHTETQQD"
2,6,"av6_15 (designed binder, Yeast display: Aga2 fusion with C-terminal myc tag; also purified from E. coli with C-terminal His tag) MAVVRFVFRGDLAELMLRAVKDHLKKEGPHWNITSVESSQVELVVRGIHESDAKRIAKWVEKRFPGVHTETQQ"
3,3,"evolved variant from the first round of design (02_E2V_T12A_E40V_S44I_T63I) (designed binder, No substitutions were applied here; also called original crystallized variant) AVVRFVFRGDLAELMLRAVKDHLKKEGPHWNITSRGNELVVRGIHESDAKRIQKEFPSVQSTIQA"

# Target: T1, human αvβ6 integrin, soluble protein …
# Assay: BLI (Octet RED96), His-tagged binder on Ni-NTA sensor, αvβ6 in solution
row,apparent Kd (pooled screen) [pM],Binder
1,1180,"av6_3 (designed binder, the purified protein (BLI, cell assays) carries a C-terminal His tag; also called αv6_3; original unevolved av6_3; not shown: C-terminal His tag of the purified protein (pET29b, NdeI/XhoI)) MAVVRFVFRGDLAELMLRAVKDHLKKEGPHWNITSTNNGAELVVRGIHESDAKRIAKWVEKRFPGVHTETQQD"

# Target: T2, human αvβ6 integrin on cells (A431 …)
# Assay: flow cytometry titration of AF488-labelled binder on A431 cells, 5 hours at 4° C., one site-specific binding fit
# Source text: We set out to test the ability of these binders to bind to αᵥβ₆(+) cells and block TGF-β mediated downstream signaling. We generated fluorescently labelled BP1 and BP2 by conjugating Alexafluor-488 to an engineered C-term cysteine via maleimide chemistry. The fluorescently labelled proteins were titrated against αᵥβ₆ positive human epidermoid carcinoma A431 cells.
# Epidermoid cancer cells (A431) and human embryonic kidney 293T cells (HEK 293T) were purchased from American Type Culture Collection (ATCC) and grown in Dulbecco's Modified Eagle Medium (DMEM, Gibco) supplemented with 10% fetal bovine serum (FBS, Gibco) in a humidified atmosphere with 5% CO2 at 37° C. Binding assays were performed on A431 carcinoma cells. A431 cells were dissociated from culture flasks with enzyme-free cell dissociation buffer (Gibco). Varying concentrations of AG-AF488 and E13T-AF488 were incubated with 5×10^4 A431 cells in 1×TBS with 0.1% BSA, 1 mM Ca2+, and 1 mM Mg2+ (BTBS) rotating in suspension for 5 hours at 4° C. Sufficient incubation volumes were used to avoid >5% ligand depletion. After incubation, cells were washed with BTBS and analyzed by flow cytometry on an Accuri™ C6 instrument (BD Biosciences), and data were quantified using FlowJo™ software (TreeStar). Kd values were determined by fitting the data to a one site—specific binding curve using Prism™ 7 (GraphPad Software).
row,Kd [pM],Binder
1,167,"BP1 labelled with Alexa Fluor 488 on an engineered C-terminal cysteine (designed binder, Alexa Fluor 488 C5 maleimide on the engineered C-terminal cysteine, also called E13T-AF488; fluorescently labelled BP1; not shown: engineered C-terminal cysteine and any tag) MAVVRFVFRGDLATLMLRAVKDHLKKEGPHWNITSTNNGAELVVRGIHESDAKRIAKWVEKRFPGVHTETQQD"
2,30,"BP2 labelled with Alexa Fluor 488 on an engineered C-terminal cysteine (designed binder, Alexa Fluor 488 C5 maleimide on the engineered C-terminal cysteine, also called AG-AF488; fluorescently labelled BP2; not shown: engineered C-terminal cysteine and any tag) MAVVRFVFRGDLAELMLRAVKDHLKKEGPHWNITSTNNGKELVVRGIHESDAKRIAKWVEKRFPRVHTETQQD"

# Target: T1, human αvβ6 integrin, soluble protein …
# Assay: BLI (Octet RED96), His-tagged binder on Ni-NTA sensor, αvβ6 in solution
# Remark: another data set of the same source
# Procedure: Data was collected on an Octet™ RED96 (Forte Bio) and processed using the instrument's software. His Tagged protein binders were immobilized on Ni-NTA octet sensors. The tips are then dipped into wells containing different concentrations of αᵥβ₆. Association and dissociation steps were recorded for 900 s and 1200 s respectively. An empty sensor with no loaded binding protein was included to discard any non-specific binding of αᵥβ₆ to the octet tip.
row,Kd [pM],Binder
1,411,"av6_3 A39K (designed binder, not shown: C-terminal His tag (pET29b, NdeI/XhoI)) MAVVRFVFRGDLAELMLRAVKDHLKKEGPHWNITSTNNGKELVVRGIHESDAKRIAKWVEKRFPGVHTETQQD"
2,404,"av6_3 M15RG64R (designed binder, not shown: C-terminal His tag (pET29b, NdeI/XhoI)) MAVVRFVFRGDLAELRLRAVKDHLKKEGPHWNITSTNNGAELVVRGIHESDAKRIAKWVEKRFPRVHTETQQD"
3,380,"av6_3 M15R (designed binder, not shown: C-terminal His tag (pET29b, NdeI/XhoI)) MAVVRFVFRGDLAELRLRAVKDHLKKEGPHWNITSTNNGAELVVRGIHESDAKRIAKWVEKRFPGVHTETQQD"
4,397,"av6_3 E13TM15RA39K (designed binder, not shown: C-terminal His tag (pET29b, NdeI/XhoI)) MAVVRFVFRGDLATLRLRAVKDHLKKEGPHWNITSTNNGKELVVRGIHESDAKRIAKWVEKRFPGVHTETQQD"
5,420,"av6_3 E13TM15RA39KG64R (designed binder, not shown: C-terminal His tag (pET29b, NdeI/XhoI)) MAVVRFVFRGDLATLRLRAVKDHLKKEGPHWNITSTNNGKELVVRGIHESDAKRIAKWVEKRFPRVHTETQQD"
6,470,"av6_3 G64R (designed binder, not shown: C-terminal His tag (pET29b, NdeI/XhoI)) MAVVRFVFRGDLAELMLRAVKDHLKKEGPHWNITSTNNGAELVVRGIHESDAKRIAKWVEKRFPRVHTETQQD"
7,398,"av6_3 E13TG64R (designed binder, not shown: C-terminal His tag (pET29b, NdeI/XhoI)) MAVVRFVFRGDLATLMLRAVKDHLKKEGPHWNITSTNNGAELVVRGIHESDAKRIAKWVEKRFPRVHTETQQD"
